Experimental findings from paper doi:10.1101/2022.08.09.503292 are described below.

Series [1] concerns the target mono-nucleosome with extra-nucleosomal linker DNA (185-bp '601'), Oregon green 488 on H2B D51C (NCP^185) (human) (UniProt Q6FI13). Kind of series: other fluorescence titration.
The target of a further series is BARD1 124-270 (UniProt Q99728 124-270). Kind of series: NMR.
Series [2] addresses T1, BARD1 141-216 (UniProt Q99728 141-216). Kind of series: NMR.
For series [3], the target named is T1, BARD1 141-216. Kind of series: NMR. The source holds these as a separate data set.

Read-outs that look alike come from different tables or passages of the source.

T1 sequence (Q99728 141-216): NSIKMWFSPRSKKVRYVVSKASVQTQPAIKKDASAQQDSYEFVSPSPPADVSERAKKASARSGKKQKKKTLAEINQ
BARD1 124-270, sequence (Q99728 124-270): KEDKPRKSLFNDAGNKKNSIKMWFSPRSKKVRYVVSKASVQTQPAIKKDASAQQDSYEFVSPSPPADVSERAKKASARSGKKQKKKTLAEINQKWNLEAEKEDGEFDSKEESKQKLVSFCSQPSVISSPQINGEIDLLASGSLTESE

Regarding “BRCA1^RING/BARD1^216 heterodimer (from UniProt P38398 1-112; Q99728 1-216) (complex)”, the fold increase in binding affinity with linker DNA (NCP^185 against NCP^147) in series [1] was < 2 fold.

B1: 36-mer dsDNA (dsDNA)
DNA 1: CCTACGACGCCTGGGGTACCAGCGCAATTGTGTACC
DNA 2: GGTACACAATTGCGCTGGTACCCCAGGCGTCGTAGG
Regarding B1, the binding result in the series with BARD1 124-270 and with BARD1 141-216 [2] was “binds” throughout.

B2: 36-mer bubble-DNA (mixed)
DNA 1: CCTACGACGCCTGGCTCTTTCCCGCAATTGTGTACC
DNA 2: GGTACACAATTGCGCTGGTACCCCAGGCGTCGTAGG
In the case of B2, the binding result with BARD1 141-216 [3] is listed as “binds”.
